According to patent US12797409, “Heparan sulfate mimetics to improve glucose clearance” (THE REGENTS OF THE UNIVERSITY OF CALIFORNIA):

T1: Alpl (alkaline phosphatase) (Mus musculus, UniProt P09242 P09242:18-501)
T1 sequence: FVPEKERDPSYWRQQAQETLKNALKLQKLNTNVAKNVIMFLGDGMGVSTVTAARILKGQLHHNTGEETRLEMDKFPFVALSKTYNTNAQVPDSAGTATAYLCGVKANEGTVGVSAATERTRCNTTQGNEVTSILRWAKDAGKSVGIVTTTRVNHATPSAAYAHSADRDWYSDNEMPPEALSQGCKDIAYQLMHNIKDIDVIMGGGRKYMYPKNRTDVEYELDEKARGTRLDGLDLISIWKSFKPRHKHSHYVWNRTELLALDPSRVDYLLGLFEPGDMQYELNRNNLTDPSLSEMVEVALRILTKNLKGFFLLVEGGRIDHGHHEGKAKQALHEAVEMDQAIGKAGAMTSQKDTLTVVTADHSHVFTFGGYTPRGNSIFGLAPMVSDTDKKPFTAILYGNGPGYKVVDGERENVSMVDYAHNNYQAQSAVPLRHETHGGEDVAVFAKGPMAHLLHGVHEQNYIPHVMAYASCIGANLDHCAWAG


How the values were obtained:
[1] = biological target: T1, Alpl (alkaline phosphatase); assay: flow; biotinylated aptamer alone on Ext1-/- mouse ES cells; cell-surface binding; conditions: tags: endogenous on Ext1-/- mouse embryonic stem cells; chain copies: 2; G4
[2] = biological target: T1, Alpl (alkaline phosphatase); assay: flow; Ext1-/- mouse ES cells, 40 min in suspension, 0-200 nM; binding significantly reduced after 6 days of neural differentiation; conditions: tags: endogenous on Ext1-/- mouse embryonic stem cells; chain copies: 2; label: AF488 (on streptavidin); G4

Row | Binder | EC50 [1] | EC50 [2]
1 | AGGTCAGATGAGGAGGGGGACTTAGGACTGGGTTTATGACCTATGCGTG (ssDNA, 5'-biotin) [Aptamer 19S] | ~0.107 µM | 
2 | AGGTCAGATGAGGAGGGGGACTTAGGACTGGGTTTATGACCTATGCGTG (ssDNA, 5'-biotin, bound to streptavidin carrying biotinylated heparin (1:1:1)) [Hep-SA-19S (heparin-streptavidin-aptamer 19S chimera)] |  | 0.07 µM
